In US20120251444A1 (RAPTOR PHARMACEUTICALS, published 2012):
Residue numbers refer to the chain shown, from its start. Names and notes keep the numbering of the source. Bridge positions count the residues as written; N and C are the ends. * marks the point of attachment. Biotin = O=C1N[C@H]2[C@H](CS[C@H]2CCCCC(=O)*)N1

T1: recombinant human LRP1 cluster II (R&D Systems, amino acids 786-1165, with C-terminal Fc tag) (human, UniProt Q07954 786-1165)
T1 construct: range 786-1165; Bought from R&D Systems; coated on plates; also called LRP1-C2; not shown: C-terminal Fc tag of the bought protein
T1 sequence (looked up): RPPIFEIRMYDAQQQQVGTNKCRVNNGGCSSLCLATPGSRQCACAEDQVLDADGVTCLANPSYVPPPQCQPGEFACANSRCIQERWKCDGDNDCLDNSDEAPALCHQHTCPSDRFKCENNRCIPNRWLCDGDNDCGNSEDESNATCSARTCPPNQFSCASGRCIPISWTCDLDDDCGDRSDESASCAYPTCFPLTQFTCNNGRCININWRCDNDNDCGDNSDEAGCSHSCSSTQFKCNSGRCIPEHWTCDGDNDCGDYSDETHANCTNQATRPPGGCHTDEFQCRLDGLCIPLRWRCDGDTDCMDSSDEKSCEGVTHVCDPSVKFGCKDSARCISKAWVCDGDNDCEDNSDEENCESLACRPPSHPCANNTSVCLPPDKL

B1: mature RAP (full-length receptor-associated protein) (ligand)
chain: YSREKNQPKPSPKRESGEEFRMEKLNQLWEKAQRLHLPPVRLAELHADLKIQERDELAWKKLKLDGLDEDGEKEARLIRNLNVILAKYGLDGKKDARQVTSNSLSGTQEDGLDDPRLEKLWHKAKTSGKFSGEELDKLWREFLHHKEKVHEYNVLLETLSRTEEIHENVISPSDLSDIKGSVLHSRHTELKEKLRSINQGLDRLRRVSHQGYSTEAEFEEPRVIDLWDLAQSANLTDKELEAFREELKHFEAKIEKHNHYQKQLEIAHEKLRHAESVGDGERVSRSREKHALLEGRTKELGYTVKKHLQDLSGRISRARHNEL
notes: also called full-length RAP
B2: RAP d3 (ligand)
chain: GLDRLRRVSHQGYSTEAEFEEPRVIDLWDLAQSANLTDKELEAFREELKHFEAKIEKHNHYQKQLEIAHEKLRHAESVGDGERVSRSREKHALLEGRTKELGYTVKKHLQDLSGRISRARHNEL
notes: also called recombinant RAP d3
B3: MegaRAP1 d3 A256K (ligand)
chain: B2 chain with S14T, E18K, H50Y, E52K, K71E
notes: also called MegaRAP1 A256K
B4: RAP d3 E251K, K256A, K270E (ligand)
chain: B2 chain with E52K, K57A, K71E
notes: also called RAP E251K, K256A, K270E
B5: MegaRAP1 d3 E270K (ligand)
chain: B2 chain with S14T, E18K, H50Y, E52K, K57A
notes: also called MegaRAP1 E270K
B6: MegaRAP1 d3 (ligand)
chain: B2 chain with S14T, E18K, H50Y, E52K, K57A, K71E
notes: also called RAPv2A d3; RAP v2
B7: RAP d3 K256A, K270E (ligand)
chain: B2 chain with K57A, K71E
notes: also called RAP K256A, K270E
B8: RAP d3 E251K, K270E (ligand)
chain: B2 chain with E52K, K71E
notes: also called RAP E251K, K270E
B9: MegaRAP1 d3 T213S (ligand)
chain: B2 chain with E18K, H50Y, E52K, K57A, K71E
notes: also called MegaRAP1 T213S
B10: MegaRAP1 d3 Y249H (ligand)
chain: B2 chain with S14T, E18K, E52K, K57A, K71E
notes: also called MegaRAP1 Y249H
B11: RAP d3 H249Y (ligand)
chain: B2 chain with H50Y
notes: also called RAP H249Y
B12: MegaRAP1 d3 K251E, E270K (ligand)
chain: B2 chain with S14T, E18K, H50Y, K57A
notes: also called MegaRAP1 K251E, E270K
B13: RAP d3 K270E (ligand)
chain: B2 chain with K71E
notes: also called RAP K270E
B14: MegaRAP1 d3 K251E (ligand)
chain: B2 chain with S14T, E18K, H50Y, K57A, K71E
notes: also called MegaRAP1 K251E
B15: MegaRAP1 d3 A256K, E270K (ligand)
chain: B2 chain with S14T, E18K, H50Y, E52K
notes: also called MegaRAP1 A256K, E270K
B16: MegaRAP1 d3 K217E (ligand)
chain: B2 chain with S14T, H50Y, E52K, K57A, K71E
notes: also called MegaRAP1 K217E
B17: RAP d3 E217K (ligand)
chain: B2 chain with E18K
notes: also called RAP E217K
B18: RAP d3 E251K (ligand)
chain: B2 chain with E52K
notes: also called RAP E251K
B19: LRP1 CR3-5 (receptor)
chain: not shown
notes: domain: CR3-5; also called LRP1 CR domains
B20: mRAP-8c (peptide)
peptide: GGSGGCGKHFEAKIEKHNHYQKQLEIAHEKLRHAESVGDGERVSRSREKHALLEGRTKELGYTVKKHLQDGC
modifications: N-terminal biotin (biotin-GGSGG)
notes: Cysteines at both ends are meant for cyclization by a disulfide bond
B21: mRAP-14c (peptide)
peptide: Biotin-GGSGGCEAKIEKHNHYQKQLEIAHEKLRHAESVGDGERVSRSREKHALLEGRTKELGYTVKKHGC
modifications: disulfide 6-65
notes: as for B20
B22: LRP2 CR89 (receptor)
chain: not shown
notes: domain: CR89

These binders were tested against T1, recombinant human LRP1 cluster II (R&D …) (assay: solid phase competition, inhibitor preincubated with immobilized LRP1-C2, then 2 nM RAP d3).
Procedure: (§1) Control wells contained no added inhibitor. Wells were washed with TBS supplemented with 5 mM CaCl₂ and 0.05% Tween-20. […] Excess HRP conjugate was removed and wells washed. Color was developed using TMB reagents (BioRad, Hercules, Calif.).

EC50 | Binder
0.5 nM | B1

What follows are binders tested against B22 (assay: solid-phase binding, OD at highest concentration against highest OD of all ligands).

% max (percent of maximum binding) | Binder
5% | B2
2% | B3
40% | B4
100% | B5
88% | B6
3% | B7
2% | B8
94% | B9
35% | B10
2% | B11
16% | B12
2% | B13
11% | B14
73% | B15
88% | B16
5% | B17
5% | B18

Each binder was assayed against B19 in the same assay as above.

% max (percent of maximum binding) | Binder
76% | B2
6% | B3
2% | B4
85% | B5
4% | B6
2% | B7
4% | B8
2% | B9
2% | B10
90% | B11
16% | B12
4% | B13
2% | B14
93% | B15
2% | B16
91% | B17
100% | B18

Each binder was assayed against T1, recombinant human LRP1 cluster II (R&D …) (assay: solid phase competition, EC50 against that of the mRAPc monomer).
Procedure: as §1

relative to monomer | Binder
40 fold | B1

Each binder was assayed against B22 (assay: solid-phase binding (OD), single-site non-linear regression).

Kd | Binder
114 nM | B4
8 nM | B5
38 nM | B6
19 nM | B9
153 nM | B12
72 nM | B15
25 nM | B16

These binders were tested against B2 in the same assay as above.

Kd | Binder
16 nM | B19

Each binder was assayed against B19 in the same assay as above.

Kd | Binder
114 nM | B5
28 nM | B11
4 nM | B15
9 nM | B17
7 nM | B18

Each binder was assayed against T1, recombinant human LRP1 cluster II (R&D …) (assay: solid phase binding assay, LRP1 cluster II-Fc coated on plate).
Procedure: as §1

Kd | Binder
~4 nM | B20
~21 nM | B21

What follows are binders tested against B19 (assay: binding titration on LRP1 CR3-5, absorbance against nM of ligand).

binding result | Binder
no binding (tested: 100 nM) | B3
no binding (tested: 100 nM) | B4
no binding (tested: 100 nM) | B6
no binding (tested: 100 nM) | B7
no binding (tested: 100 nM) | B8
no binding (tested: 100 nM) | B9
no binding (tested: 100 nM) | B10
no binding (tested: 100 nM) | B13
no binding (tested: 100 nM) | B14
no binding (tested: 100 nM) | B16

Molecular target: T1, recombinant human LRP1 cluster II (R&D …)
Test: solid phase competition, EC50 against that of the mRAPc monomer
Remark: another data set of the same source
Procedure: as §1

relative to monomer | Binder
36 fold | B1

The binders below were run against B22 (assay: binding titration on LRP2 CR89, absorbance against nM of ligand).
LRP2 CR89, sequence (P98164 1025-1102 limits assumed): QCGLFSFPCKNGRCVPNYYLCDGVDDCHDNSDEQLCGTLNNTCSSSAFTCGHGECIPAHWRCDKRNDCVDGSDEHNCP

binding result | Binder
no binding (tested: 100 nM) | B3
no binding (tested: 100 nM) | B7
no binding (tested: 100 nM) | B11
no binding (tested: 100 nM) | B13
no binding (tested: 100 nM) | B17
no binding (tested: 100 nM) | B18

Each binder was assayed against B2 in the same assay as above.

binding result | Binder
no binding (tested: 100 nM) | B22

The binders below were run against T1, recombinant human LRP1 cluster II (R&D …) (assay: solid phase competition, inhibition of 2 nM RAP d3 binding to immobilized LRP1-C2).
Procedure: as §1

EC50 | Binder
0.8 nM | B1
